One may read the koff as the rate constant with which the complex falls apart. By Kd is commonly meant the constant that tells how readily two partners part at equilibrium. A high value points to weaker binding.

Results on one molecule are retold here after patent publication US20120244144A1 (University of Texas, published 2012).

Where a chain is given by its changes, count along the chain named.

Assay [1] has as its target T1, PTx-S1A (1-220) (Bordetella pertussis, UniProt P04977 36-255, M194I).
T1 sequence: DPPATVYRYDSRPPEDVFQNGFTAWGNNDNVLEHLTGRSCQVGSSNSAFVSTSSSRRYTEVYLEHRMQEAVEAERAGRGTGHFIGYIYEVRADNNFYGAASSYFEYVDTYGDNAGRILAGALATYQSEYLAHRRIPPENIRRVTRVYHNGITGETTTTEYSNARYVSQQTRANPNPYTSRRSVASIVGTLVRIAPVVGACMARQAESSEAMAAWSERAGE
Nature of the assay: SPR. For orientation: Surface plasmon resonance follows binding to a sensor surface in real time, without labels.

For assay [2], the target named is T2, PTx-S1D (1-220) (Bordetella pertussis, UniProt P04977 35-254).
T2 chain: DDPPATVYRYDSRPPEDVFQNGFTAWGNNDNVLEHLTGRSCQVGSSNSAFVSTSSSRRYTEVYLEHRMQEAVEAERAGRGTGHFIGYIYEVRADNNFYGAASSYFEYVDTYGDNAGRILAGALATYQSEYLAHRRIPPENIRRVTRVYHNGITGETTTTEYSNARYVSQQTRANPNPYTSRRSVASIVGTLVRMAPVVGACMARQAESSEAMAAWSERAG
In words: SPR.

The target of assay [3] is pertussis toxin B-oligomer (Bordetella pertussis), P04978. In words: ELISA repeated with mAb 1B7. The conditions noted are these: remark: other sources report otherwise. On the technique in general: An ELISA detects its analyte on a solid surface through an enzyme-linked reagent.
The target in assay [4] is T3, PTx-S1-220 R146A (Bordetella pertussis strain Tohama I, UniProt P04977 36-255, R146A).
T3 sequence: T1 sequence with R145A, I193M
In words: SPR, mAb 1B7 immobilised ~1000 RU.

The target in assay [5] is T4, PTx-S1-220 E155A (Bordetella pertussis strain Tohama I, UniProt P04977 36-255, E155A).
T4 sequence: T1 sequence with E154A, I193M
Nature of the assay: SPR, mAb 1B7 immobilised ~1000 RU.

For assay [6], the target named is T5, PTx-S1-220 T159A (Bordetella pertussis strain Tohama I, UniProt P04977 36-255, T159A).
T5 sequence: T1 sequence with T158A, I193M
In words: SPR, mAb 1B7 immobilised ~1000 RU.

Assay [7] has as its target T6, PTx-S1-220 T153A (Bordetella pertussis strain Tohama I, UniProt P04977 36-255, T153A).
T6 sequence: T1 sequence with T152A, I193M
In words: SPR, mAb 1B7 immobilised ~1000 RU.

The target of assay [8] is T7, PTx-S1-220 H83A (Bordetella pertussis strain Tohama I, UniProt P04977 36-255, H83A).
T7 sequence: T1 sequence with H82A, I193M
Nature of the assay: SPR, mAb 1B7 immobilised ~1000 RU.

The target of assay [9] is T8, PTx-S1-220 Y8A (Bordetella pertussis strain Tohama I, UniProt P04977 36-255, Y8A).
T8 sequence: T1 sequence with Y7A, I193M
Nature of the assay: Western blot (text: 1B7 was unable to bind Y8A).

The target in assay [10] is T9, PTx-S1-220, truncated recombinant S1 subunit (residues 1-220) (Bordetella pertussis strain Tohama I), P04977. Nature of the assay: SPR BIAcore 3000, mAb 1B7 immobilised ~1000 RU. The conditions noted are these: remark: other sources report otherwise.
The target in assay [11] is pertussis toxin B-oligomer (Bordetella pertussis), P04978. Nature of the assay: SPR BIAcore 3000, mAb 1B7 immobilised ~1000 RU. The settings on record: remark: other sources report otherwise.
The target of assay [12] is pertussis toxin holotoxin (Bordetella pertussis), P04977. Nature of the assay: SPR BIAcore 3000, mAb 1B7 immobilised ~1000 RU. The conditions noted are these: remark: other sources report otherwise.
For assay [13] the target is unchanged. Nature of the assay: competition ELISA (Friguet), 5 nM antibody, soluble PT. The settings on record: remark: other sources report otherwise.
Assay [14] addresses T9, PTx-S1-220, truncated recombinant S1 …. Nature of the assay: SPR; value for truncated PTx-S1-220 differs from Table 1. The settings on record: remark: other sources report otherwise.

B1: monoclonal antibody 1B7 (antibody)
chain: DIQMTQSPALMSASPGEKVTMTCSASSSVSFMYWYQQKPRSSPKPWIYLTSNLPSGVPARFSGSGSGTSYSLTISSMEAEDAATYYCQQWSSHPPTFGSGTKLEIKRGGGGSGGGGSGGGGSGGGGSEVQLQQSGSELVRPGASVKLSCKASGYKFTSYWMHWVKQRPGQGLEWIGNIFPGSGSTNYDEKFNSKATLTVDTSSNTAYMQLSSLTSEDSAVYYCTRWLSGAYFDYWGQGTTLTVSSASGA
notes: also called mAb 1B7; 1B7 mAb
With B1, the “fold decrease in off-rate versus WT PTx-S1-220” value in [1] and in [2] was around 2 fold in each case. Further, in assay [3], the EC50-PTx (%) was 30%. Further, the koff in assay [4] amounted to 0.0015 s⁻¹; in assay [5], 0.0011 s⁻¹; in [6], 0.0014 s⁻¹; in assay [7] it was 0.002 s⁻¹; in assay [8] it was 0.01 s⁻¹; in [10] it was 0.0014 s⁻¹. Moreover, the koff in assay [11] is 0.0027 s⁻¹; in [12] it was 0.0004 s⁻¹; in assay [14] it was 0.0014 s⁻¹. Also, in assay [9], the binding result is on record as “no binding”. The molecule further registered a Kd in [13] of 1.1 nM.
